According to patent publication US20090264359A1, “FPLR-1 INHIBITORS FOR USE IN DISEASES INVOLVING AMYLOID-INDUCED INFLAMMATORY EVENTS (FLIPR AND FLIPR-LIKE) AND IMMUNECOMPLEX-[…] DISEASES” (published 2009):

Columns and labels:
[1] = molecular target: FcγRs on human neutrophils and peripheral blood monocytes
[2] = molecular target: FPR on human neutrophils and monocytes (human, UniProt P21462); assay: cell-based or functional assay

B1: FLIPr-like (other)
chain: FFSYEWKGLEIAKNLADQAKKDDERADKLIKEADEKNEHYKGKTVEDLYVIAKKMGKGNTIAVVKIKDGGKNGYYTFDITRPLEEHRKNIPVVKNGEIDSITWY
modifications: FITC label in the flow cytometric binding assays (FLIPr-like-FITC); unlabelled elsewhere
minimal effective concentration in phagocytosis by human neutrophils [1]: 0.19 µg/mL | FPR blocking activity (fMLF-induced activation of neutrophils) [2]: ~100 fold
